Publication PMC2944805, “A Major Determinant of Cyclophilin Dependence and Cyclosporine Susceptibility of Hepatitis C Virus Identified by a Genetic Approach” (PLoS Pathogens, 2010)

Biological target: T1, 15N-labeled human CyPA (human, UniProt P62937 1-165, 15N-labeled)
T1 construct: human cyclophilin A (CyPA); also called cyclophilin A
Assay: NMR titration; peptide added stepwise to 15N-labeled CyPA (~0.5 mM); 2D 1H,15N-HSQC, 22°C; 50 mM NaH2PO4/Na2PO4, pH 6.3, 40 mM NaCl, 2 mM EDTA, 1 mM DTT
Details: both partners purified

B1: synthetic WT peptide, residues 304-323 of NS5A (peptide)
peptide: GFPRALPAWARPDYNPPLVE
notes: residues 304-323 of NS5A of HCV JFH-1 (genotype 2a); numbers count on: NS5A itself, not the polyprotein; also called 20-mer peptide (G304-E323); source: synthetic peptide, bought: NEO BioScience
- binding result: binds
